Experimental data published in patent US20160367623A1, “AGONISTS OF GUANYLATE CYCLASE USEFUL FOR THE TREATMENT OF GASTROINTESTINAL DISORDERS, INFLAMMATION, CANCER AND OTHER DISORDERS” (priority 2015, published 2016).
Bridge positions count the residues as written; N and C are the ends. Ends that are not written are not given here.

Tested on: patients with chronic idiopathic constipation (CIC)
Experiment: Second phase 3 CIC trial: treatment emergent adverse events, safety

Asn^1-Asp^2-Glu^3-Cys^4-Glu^5-Leu^6-Cys^7-Val^8-Asn^9-Val^10-Ala^11-Cys^12-Thr^13-Gly^14-Cys^15-Leu^16 (NDECELCVNVACTGCL; disulfide 4-12, 7-15) [Plecanatide]
Influenza like illness: events E (Active Combined (N = 936)): 1 | Influenza like illness: patients % (Active Combined (N = 936)): (0.1) % | Influenza like illness: patients (%) (Active Combined (N = 936)): (0.1) % | Influenza like illness: patients N (Active Combined (N = 936)): 1 | Influenza: events E (Active Combined (N = 936)): 9 | Influenza: patients % (Active Combined (N = 936)): (1.0) % | Influenza: patients N (Active Combined (N = 936)): 9 | Injury, poisoning and procedural complications (SOC): events E (Active Combined (N = 936)): 19 | Injury, poisoning and procedural complications (SOC): patients % (Active Combined (N = 936)): (1.7) % | Injury, poisoning and procedural complications (SOC): patients N (Active Combined (N = 936)): 16 | Insomnia, events E (Active Combined (N = 936)): 3 | Insomnia, patients (%) (Active Combined (N = 936)): (0.3) % | Insomnia, patients N (Active Combined (N = 936)): 3 | Intervertebral disc disorder, Mild: events E (Active Combined (N = 936)): 0 | Intervertebral disc disorder, Mild: patients N (Active Combined (N = 936)): 0 | Intervertebral disc disorder, Moderate: events E (Active Combined (N = 936)): 0 | Ligament sprain, events E (Active Combined (N = 936)): 2 | Ligament sprain, patients (%) (Active Combined (N = 936)): (0.2) % | Ligament sprain, patients N (Active Combined (N = 936)): 2 | Musculoskeletal and connective tissue disorders [System Organ Class], events E (Active Combined (N = 936)): 19 | Musculoskeletal and connective tissue disorders [System Organ Class], patients (%) (Active Combined (N = 936)): (2.0) % | Musculoskeletal and connective tissue disorders [System Organ Class], patients N (Active Combined (N = 936)): 19 | Musculoskeletal and connective tissue disorders, Mild: events E (Active Combined (N = 936)): 10 | Musculoskeletal and connective tissue disorders, Mild: patients (%) (Active Combined (N = 936)): (1.1) % | Musculoskeletal and connective tissue disorders, Mild: patients N (Active Combined (N = 936)): 10 | Musculoskeletal and connective tissue disorders, Moderate: events E (Active Combined (N = 936)): 9 | Musculoskeletal and connective tissue disorders, Moderate: patients (%) (Active Combined (N = 936)): (1.0) % | Musculoskeletal and connective tissue disorders, Moderate: patients N (Active Combined (N = 936)): 9 | Musculoskeletal and connective tissue disorders, Severe: events E (Active Combined (N = 936)): 0 | Musculoskeletal and connective tissue disorders, Severe: patients N (Active Combined (N = 936)): 0 | Musculoskeletal and connective tissue disorders: events E (Active Combined (N = 936)): 19 | Musculoskeletal and connective tissue disorders: patients (%) (Active Combined (N = 936)): (2.0) % | Musculoskeletal and connective tissue disorders: patients N (Active Combined (N = 936)): 19 | Musculoskeletal chest pain, Mild: events E (Active Combined (N = 936)): 1 | Musculoskeletal chest pain, Mild: patients (%) (Active Combined (N = 936)): (0.1) % | Musculoskeletal chest pain, Mild: patients N (Active Combined (N = 936)): 1 | Musculoskeletal chest pain, Moderate: events E (Active Combined (N = 936)): 0 | Musculoskeletal chest pain, Moderate: patients N (Active Combined (N = 936)): 0 | Musculoskeletal chest pain, Severe: events E (Active Combined (N = 936)): 0 | Musculoskeletal chest pain, Severe: patients N (Active Combined (N = 936)): 0 | Musculoskeletal chest pain: events E (Active Combined (N = 936)): 1 | Musculoskeletal chest pain: patients (%) (Active Combined (N = 936)): (0.1) % | Musculoskeletal chest pain: patients N (Active Combined (N = 936)): 1 | Musculoskeletal pain, Mild: events E (Active Combined (N = 936)): 1 | Musculoskeletal pain, Mild: patients (%) (Active Combined (N = 936)): (0.1) % | Musculoskeletal pain, Mild: patients N (Active Combined (N = 936)): 1 | Musculoskeletal pain, Moderate: events E (Active Combined (N = 936)): 1 | Musculoskeletal pain, Moderate: patients (%) (Active Combined (N = 936)): (0.1) % | Musculoskeletal pain, Moderate: patients N (Active Combined (N = 936)): 1 | Musculoskeletal pain, Severe: events E (Active Combined (N = 936)): 0 | Musculoskeletal pain, Severe: patients N (Active Combined (N = 936)): 0 | Musculoskeletal pain: events E (Active Combined (N = 936)): 2 | Musculoskeletal pain: patients (%) (Active Combined (N = 936)): (0.2) % | Musculoskeletal pain: patients N (Active Combined (N = 936)): 2 | SAE Musculoskeletal and connective tissue disorders, E events (Active Combined (N = 936)): 0 | SAE Musculoskeletal and connective tissue disorders, N patients (Active Combined (N = 936)): 0 | SAE Musculoskeletal and connective tissue disorders, No Reasonable Possibility, E events (Active Combined (N = 936)): 0 | SAE Musculoskeletal and connective tissue disorders, No Reasonable Possibility, N patients (Active Combined (N = 936)): 0 | SAE Musculoskeletal and connective tissue disorders, Reasonable Possibility, E events (Active Combined (N = 936)): 0 | SAE Musculoskeletal and connective tissue disorders, Reasonable Possibility, N patients (Active Combined (N = 936)): 0 | Skeletal injury, events E (Active Combined (N = 936)): 1 | Skeletal injury, patients (%) (Active Combined (N = 936)): (0.1) % | Skeletal injury, patients N (Active Combined (N = 936)): 1 | TE SAE: Musculoskeletal and connective tissue disorders, E events (Active Combined (N = 936)): 0 | TE SAE: Musculoskeletal and connective tissue disorders, N patients (Active Combined (N = 936)): 0 | TEAE Leading to Discontinuation: Infections and infestations, % patients (Active Combined (N = 936)): (0.1) % | TEAE Leading to Discontinuation: Infections and infestations, E events (Active Combined (N = 936)): 1 | TEAE Leading to Discontinuation: Infections and infestations, N patients (Active Combined (N = 936)): 1 | TEAE Leading to Discontinuation: Musculoskeletal and connective tissue disorders, E events (Active Combined (N = 936)): 0 | TEAE Leading to Discontinuation: Musculoskeletal and connective tissue disorders, N patients (Active Combined (N = 936)): 0 | TEAE Leading to Discontinuation: Viral infection, % patients (Active Combined (N = 936)): (0.1) % | TEAE Leading to Discontinuation: Viral infection, E events (Active Combined (N = 936)): 1 | TEAE Leading to Discontinuation: Viral infection, N patients (Active Combined (N = 936)): 1 | Musculoskeletal and connective tissue disorders [System Organ Class], events E (Plecanatide 3 mg (N = 467)): 8 | Musculoskeletal and connective tissue disorders [System Organ Class], patients (%) (Plecanatide 3 mg (N = 467)): (1.7) % | Musculoskeletal and connective tissue disorders [System Organ Class], patients N (Plecanatide 3 mg (N = 467)): 8 | Musculoskeletal and connective tissue disorders, Mild: events E (Plecanatide 3 mg (N = 467)): 4 | Musculoskeletal and connective tissue disorders, Mild: patients (%) (Plecanatide 3 mg (N = 467)): (0.9) % | Musculoskeletal and connective tissue disorders, Mild: patients N (Plecanatide 3 mg (N = 467)): 4 | Musculoskeletal and connective tissue disorders, Moderate: events E (Plecanatide 3 mg (N = 467)): 4 | Musculoskeletal and connective tissue disorders, Moderate: patients (%) (Plecanatide 3 mg (N = 467)): (0.9) % | Musculoskeletal and connective tissue disorders, Moderate: patients N (Plecanatide 3 mg (N = 467)): 4 | Musculoskeletal and connective tissue disorders, Severe: events E (Plecanatide 3 mg (N = 467)): 0 | Musculoskeletal and connective tissue disorders, Severe: patients N (Plecanatide 3 mg (N = 467)): 0 | Musculoskeletal and connective tissue disorders: events E (Plecanatide 3 mg (N = 467)): 8 | Musculoskeletal and connective tissue disorders: patients (%) (Plecanatide 3 mg (N = 467)): (1.7) % | Musculoskeletal and connective tissue disorders: patients N (Plecanatide 3 mg (N = 467)): 8 | Musculoskeletal chest pain, Mild: events E (Plecanatide 3 mg (N = 467)): 1 | Musculoskeletal chest pain, Mild: patients (%) (Plecanatide 3 mg (N = 467)): (0.2) % | Musculoskeletal chest pain, Mild: patients N (Plecanatide 3 mg (N = 467)): 1 | Musculoskeletal chest pain, Moderate: events E (Plecanatide 3 mg (N = 467)): 0 | Musculoskeletal chest pain, Moderate: patients N (Plecanatide 3 mg (N = 467)): 0 | Musculoskeletal chest pain, Severe: events E (Plecanatide 3 mg (N = 467)): 0 | Musculoskeletal chest pain, Severe: patients N (Plecanatide 3 mg (N = 467)): 0 | Musculoskeletal chest pain: events E (Plecanatide 3 mg (N = 467)): 1 | Musculoskeletal chest pain: patients (%) (Plecanatide 3 mg (N = 467)): (0.2) % | Musculoskeletal chest pain: patients N (Plecanatide 3 mg (N = 467)): 1 | Musculoskeletal pain, Mild: events E (Plecanatide 3 mg (N = 467)): 1 | Musculoskeletal pain, Mild: patients (%) (Plecanatide 3 mg (N = 467)): (0.2) % | Musculoskeletal pain, Mild: patients N (Plecanatide 3 mg (N = 467)): 1 | Musculoskeletal pain, Moderate: events E (Plecanatide 3 mg (N = 467)): 0 | Musculoskeletal pain, Moderate: patients N (Plecanatide 3 mg (N = 467)): 0 | Musculoskeletal pain, Severe: events E (Plecanatide 3 mg (N = 467)): 0 | Musculoskeletal pain, Severe: patients N (Plecanatide 3 mg (N = 467)): 0 | Musculoskeletal pain: events E (Plecanatide 3 mg (N = 467)): 1 | Musculoskeletal pain: patients (%) (Plecanatide 3 mg (N = 467)): (0.2) % | Musculoskeletal pain: patients N (Plecanatide 3 mg (N = 467)): 1 | Skeletal injury, events E (Plecanatide 3 mg (N = 467)): 0 | Skeletal injury, patients N (Plecanatide 3 mg (N = 467)): 0 | TE SAE: Musculoskeletal and connective tissue disorders, E events (Plecanatide 3 mg (N = 467)): 0 | TE SAE: Musculoskeletal and connective tissue disorders, N patients (Plecanatide 3 mg (N = 467)): 0 | TEAE Leading to Discontinuation: Musculoskeletal and connective tissue disorders, E events (Plecanatide 3 mg (N = 467)): 0 | TEAE Leading to Discontinuation: Musculoskeletal and connective tissue disorders, N patients (Plecanatide 3 mg (N = 467)): 0 | Musculoskeletal and connective tissue disorders [System Organ Class], events E (Plecanatide 6 mg (N = 469)): 11 | Musculoskeletal and connective tissue disorders [System Organ Class], patients (%) (Plecanatide 6 mg (N = 469)): (2.3) % | Musculoskeletal and connective tissue disorders [System Organ Class], patients N (Plecanatide 6 mg (N = 469)): 11 | Musculoskeletal and connective tissue disorders, Mild: events E (Plecanatide 6 mg (N = 469)): 6 | Musculoskeletal and connective tissue disorders, Mild: patients (%) (Plecanatide 6 mg (N = 469)): (1.3) % | Musculoskeletal and connective tissue disorders, Mild: patients N (Plecanatide 6 mg (N = 469)): 6 | Musculoskeletal and connective tissue disorders, Moderate: events E (Plecanatide 6 mg (N = 469)): 5 | Musculoskeletal and connective tissue disorders, Moderate: patients (%) (Plecanatide 6 mg (N = 469)): (1.1) % | Musculoskeletal and connective tissue disorders, Moderate: patients N (Plecanatide 6 mg (N = 469)): 5 | Musculoskeletal and connective tissue disorders, Severe: events E (Plecanatide 6 mg (N = 469)): 0 | Musculoskeletal and connective tissue disorders, Severe: patients N (Plecanatide 6 mg (N = 469)): 0 | Musculoskeletal and connective tissue disorders: events E (Plecanatide 6 mg (N = 469)): 11 | Musculoskeletal and connective tissue disorders: patients (%) (Plecanatide 6 mg (N = 469)): (2.3) % | Musculoskeletal and connective tissue disorders: patients N (Plecanatide 6 mg (N = 469)): 11 | Musculoskeletal chest pain, Mild: events E (Plecanatide 6 mg (N = 469)): 0 | Musculoskeletal chest pain, Mild: patients N (Plecanatide 6 mg (N = 469)): 0 | Musculoskeletal chest pain, Moderate: events E (Plecanatide 6 mg (N = 469)): 0 | Musculoskeletal chest pain, Moderate: patients N (Plecanatide 6 mg (N = 469)): 0 | Musculoskeletal chest pain, Severe: events E (Plecanatide 6 mg (N = 469)): 0 | Musculoskeletal chest pain, Severe: patients N (Plecanatide 6 mg (N = 469)): 0 | Musculoskeletal chest pain: events E (Plecanatide 6 mg (N = 469)): 0 | Musculoskeletal chest pain: patients N (Plecanatide 6 mg (N = 469)): 0 | Musculoskeletal pain, Mild: events E (Plecanatide 6 mg (N = 469)): 0 | Musculoskeletal pain, Mild: patients N (Plecanatide 6 mg (N = 469)): 0 | Musculoskeletal pain, Moderate: events E (Plecanatide 6 mg (N = 469)): 1 | Musculoskeletal pain, Moderate: patients (%) (Plecanatide 6 mg (N = 469)): (0.2) % | Musculoskeletal pain, Moderate: patients N (Plecanatide 6 mg (N = 469)): 1 | Musculoskeletal pain, Severe: events E (Plecanatide 6 mg (N = 469)): 0 | Musculoskeletal pain, Severe: patients N (Plecanatide 6 mg (N = 469)): 0 | Musculoskeletal pain: events E (Plecanatide 6 mg (N = 469)): 1 | Musculoskeletal pain: patients (%) (Plecanatide 6 mg (N = 469)): (0.2) % | Musculoskeletal pain: patients N (Plecanatide 6 mg (N = 469)): 1 | Skeletal injury, events E (Plecanatide 6 mg (N = 469)): 1 | Skeletal injury, patients (%) (Plecanatide 6 mg (N = 469)): (0.2) % | Skeletal injury, patients N (Plecanatide 6 mg (N = 469)): 1 | TE SAE: Musculoskeletal and connective tissue disorders, E events (Plecanatide 6 mg (N = 469)): 0 | TE SAE: Musculoskeletal and connective tissue disorders, N patients (Plecanatide 6 mg (N = 469)): 0 | TEAE Leading to Discontinuation: Musculoskeletal and connective tissue disorders, E events (Plecanatide 6 mg (N = 469)): 0 | TEAE Leading to Discontinuation: Musculoskeletal and connective tissue disorders, N patients (Plecanatide 6 mg (N = 469)): 0
